Results from patent US20200017592A1 (Regeneron, published 2020).

B1: H4H14734P2 (antibody, human IgG4 S228P, kappa, V domains shown)
VH: EVQLVESGGGLVKPGGSLRLSCAASGFIFSNAWMNWVRQAPGKGLAWVGRIKTETDGGTTDYAAPVKGRFTISRDDSKNTLYLQMNSVKTEDTAVYYCTGGYSYGDDSSSWNEGYYYYGMDVWGQGTTVTVSS
VL: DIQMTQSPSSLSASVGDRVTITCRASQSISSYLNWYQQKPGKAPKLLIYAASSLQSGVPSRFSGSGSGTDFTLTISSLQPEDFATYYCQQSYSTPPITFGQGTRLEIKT
notes: Fully human anti-IL-36R antibody; also called H14H14734P2
B2: H4H14731P (antibody, human IgG4 S228P, kappa, V domains shown)
VH: QLQLQESGPGLVKPSETLSLTCTVSGGSISSSNYYWGWIRQPPGKRLEWIGSIYYSGSTYYNPSLKTRVTISVDTSKNQFSLKLTSVTAADTAVYYCAREEAAALTHFDFWGQGTLVTVSS
VL: DIQMTQSPSSLSASVGDRVTITCRASQSISNYLNWYQQKPGKAPKLLIFAASSLQSGVPSRFSGSGSGTDFTLTISSLQPEDFATYYCQHSHSSHPITFGQGTRLEIKR
notes: Fully human anti-IL-36R antibody
B3: H4H14732P2 (antibody, human IgG4 S228P, kappa, V domains shown)
VH: EVQLVESGGGLVQPGRSLRLSCAASGFTFDDYAMHWVRQAPGKGLEWVSGINWAGYNIDYADSVKGRFTISRDNAKNSLYLQMNSLRAEDTALYYCAKDMRGFSYGFPFDYWGQGTLVTVSS
VL: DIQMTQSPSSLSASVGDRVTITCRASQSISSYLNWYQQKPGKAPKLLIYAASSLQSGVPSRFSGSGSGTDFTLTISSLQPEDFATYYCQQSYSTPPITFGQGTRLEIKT
notes: as for B2

Experiments:
[1] = molecular target: T1, human IL-36R extracellular domain expressed with a C-terminal mouse IgG2a Fc tag (hIL-36R-mFc) (human; mouse, UniProt Q9HB29 20-337); experiment: SPR Biacore 4000, mAb captured on anti-hFc, 25C
T1 construct: not shown: mouse IgG2a Fc, E98-K330
T1 sequence (looked up): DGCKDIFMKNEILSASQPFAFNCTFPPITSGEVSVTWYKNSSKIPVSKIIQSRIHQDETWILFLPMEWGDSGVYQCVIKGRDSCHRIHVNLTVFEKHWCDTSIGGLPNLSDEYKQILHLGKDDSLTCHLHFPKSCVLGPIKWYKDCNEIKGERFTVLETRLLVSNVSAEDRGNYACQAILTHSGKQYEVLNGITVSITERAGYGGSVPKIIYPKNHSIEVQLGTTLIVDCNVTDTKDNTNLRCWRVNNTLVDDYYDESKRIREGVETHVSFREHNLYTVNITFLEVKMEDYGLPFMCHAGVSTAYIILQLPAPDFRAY
Experimental: (§1) Equilibrium dissociation constants (KD values) for IL-36R binding to purified anti-IL-36R antibodies were determined using a real-time surface plasmon resonance biosensor using a Biacore 4000 instrument. The Biacore sensor surface was first derivatized by amine coupling with a monoclonal mouse anti-human Fc antibody (GE, # BR-1008-39) to capture anti-IL-36R monoclonal antibodies. All binding studies were performed in 0.01 M Hepes pH 7.4, 0.15 M NaCl, 3 mM EDTA, and 0.05% v/v Surfactant Tween-20 (HBS-ET running buffer) at 25° C. and 37° C. Different concentrations of IL-36R reagents, human IL-36R extracellular domain expressed with a C-terminal myc-myc-hexahistidine tag (hIL-36R-MMH), Macaca fascicularis IL-36R extracellular domain expressed with a C-terminal myc-myc-hexahistidine tag (mfIL-36R-MMH: mROR1 signal sequence (M1-A29). Macaca fascicularis IL36R_ecto domain (D20-A336).mycmycHis6), human IL-36R extracellular domain expressed with a C-terminal mouse IgG2a Fc tag (hIL-36R-mFc: mROR1 signal sequence (M1-A29)-human IL36R (D20-Y337)-mouse IgG2aFc (E98-K330)) or an in-line fusion protein of human IL-36R extracellular domain and IL1RAcP extracellular domain expressed with mouse IgG2a Fc tag (hIL-36R-Trap-mFc: mROR1 signal sequence (M1-A29)-human IL36R ecto domain (D20-Y337)-human IL1RacP ecto domain(S21-E359)-mouse IgG2aFc) in HBS-ET running buffer (ranging from 100 nM to 3.7 nM, 3-fold dilutions) were injected over the anti-IL-36R antibody captured surface for 4 minutes at a flow rate of 30 μL/minute and their dissociation in HBS-ET running buffer was monitored for 10 minutes. Kinetic association rate constant (kₐ) and dissociation rate constant (kd) were determined by fitting the real-time sensorgrams to a 1:1 binding model using Scrubber 2.0c curve fitting software. Binding dissociation equilibrium constants (KD) and dissociative half-lives (t_{1/2}) were calculated from the kinetic rate constants as: […]

[2] = molecular target: T2, in-line fusion protein of human IL-36R extracellular domain and IL1RAcP extracellular domain expressed with … (human; mouse, UniProt Q9HB29 20-337; Q9NPH3 21-359, limits assumed); experiment: SPR Biacore 4000, mAb captured on anti-hFc, 25C
T2 construct: not shown: mouse IgG2a Fc
T2 sequence (looked up): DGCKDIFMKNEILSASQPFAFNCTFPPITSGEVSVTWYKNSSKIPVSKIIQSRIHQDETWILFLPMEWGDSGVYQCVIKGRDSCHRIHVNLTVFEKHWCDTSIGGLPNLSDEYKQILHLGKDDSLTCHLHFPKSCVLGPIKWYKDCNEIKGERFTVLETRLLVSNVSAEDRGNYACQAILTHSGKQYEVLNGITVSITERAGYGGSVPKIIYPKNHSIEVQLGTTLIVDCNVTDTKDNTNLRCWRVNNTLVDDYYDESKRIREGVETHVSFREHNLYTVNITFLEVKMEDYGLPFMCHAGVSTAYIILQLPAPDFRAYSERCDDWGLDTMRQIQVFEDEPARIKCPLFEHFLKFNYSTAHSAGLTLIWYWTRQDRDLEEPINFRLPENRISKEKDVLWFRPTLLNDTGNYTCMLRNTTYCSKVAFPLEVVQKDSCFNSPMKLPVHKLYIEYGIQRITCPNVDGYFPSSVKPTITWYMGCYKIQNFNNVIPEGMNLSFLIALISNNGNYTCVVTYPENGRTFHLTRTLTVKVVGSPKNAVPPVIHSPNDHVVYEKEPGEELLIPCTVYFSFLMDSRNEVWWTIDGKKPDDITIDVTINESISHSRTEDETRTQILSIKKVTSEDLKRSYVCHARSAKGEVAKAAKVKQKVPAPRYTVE
Experimental: as §1

[3] = molecular target: T1, human IL-36R extracellular domain …; experiment: SPR Biacore 4000, mAb captured on anti-hFc, 37C
Experimental: as §1

[4] = molecular target: T2, in-line fusion protein of human IL-36R …; experiment: SPR Biacore 4000, mAb captured on anti-hFc, 37C
Experimental: as §1

[5] = molecular target: T3, human IL-36R extracellular domain expressed with a C-terminal myc-myc-hexahistidine tag (hIL-36R-MMH) (human, UniProt Q9HB29 20-337); experiment: SPR Biacore T200, mAb captured on anti-hFc, 25C, PBS-T pH 6.0 running buffer
T3 construct: also called Human IL-36R-MMH; REGN2105
Experimental: (§2) Additional binding experiments were performed to determine the effect of pH on the rate of dissociation of IL-36R bound to purified anti-IL-36R antibodies, which was determined using a real-time surface plasmon resonance biosensor using a Biacore T200 instrument. The Biacore sensor surface was first derivatized by amine coupling with a monoclonal mouse anti-human Fc antibody (GE, # BR-1008-39) to capture anti-IL-36R antibodies. […] Different concentrations of hIL-36R-MMH and mfIL-36R-MMH prepared in PBS-T, pH7.4 buffer (ranging from 100 nM to 11.11 nM, 3-fold dilutions) were injected over the anti-IL-36R antibody captured surface for 4 minutes at a flow rate of 50 μL/minute and their dissociation in two running buffers, PBS-T, pH7.4 and PBS-T, pH 6.0, was monitored for 10 minutes. All of these binding kinetics experiments were performed at 25° C. and 37° C. Kinetic dissociation constant (kd) were determined by fitting the real-time sensorgrams to a 1:1 binding model using Scrubber 2.0c curve fitting software. Binding dissociative half-lives (t_{1/2}) were calculated from kd as: […]

[6] = molecular target: T3, human IL-36R extracellular domain …; experiment: SPR Biacore T200, mAb captured on anti-hFc, 25C, PBS-T pH 7.4 running buffer
Experimental: as §2

[7] = molecular target: T3, human IL-36R extracellular domain …; experiment: SPR Biacore T200, mAb captured on anti-hFc, 37C, PBS-T pH 6.0 running buffer
Experimental: as §2

[8] = molecular target: T3, human IL-36R extracellular domain …; experiment: SPR Biacore T200, mAb captured on anti-hFc, 37C, PBS-T pH 7.4 running buffer
Experimental: as §2

Row | Binder | 100 nM hIL-36R-mFc Bound (RU) [1] [RU] | Kd [1] [nM] | koff [1] [s⁻¹] | kon [1] [M⁻¹ s⁻¹] | t1/2 [1] [min] | 100 nM hIL-36R-Trap-mFc Bound (RU) [2] [RU] | Kd [2] [nM] | koff [2] [s⁻¹] | kon [2] [M⁻¹ s⁻¹] | t1/2 [2] [min] | 100 nM hIL-36R-mFc Bound (RU) [3] [RU] | Kd [3] [nM] | koff [3] [s⁻¹] | kon [3] [M⁻¹ s⁻¹] | t1/2 [3] [min] | 100 nM hIL-36R-Trap-mFc Bound (RU) [4] [RU] | Kd [4] [nM] | koff [4] [s⁻¹] | kon [4] [M⁻¹ s⁻¹] | t1/2 [4] [min] | further results
1 | B1 | 77 | 1.63 | 0.000101 | 62200 | 114 | 85 | 2.24 | 0.00011 | 48900 | 105 | 96 | 2.31 | 0.000122 | 52700 | 95 | 99 | 2.96 | 0.000143 | 48400 | 81 | 100 nM Human IL-36R-MMH Bound (RU) [5]: 18 RU; koff [5]: 0.000787 s⁻¹; t1/2 [5]: 15 min; 100 nM Human IL-36R-MMH Bound (RU) [6]: 20 RU; koff [6]: 0.000738 s⁻¹; t1/2 [6]: 16 min; 100 nM hIL-36R-MMH Bound (RU) [7]: 17 RU; koff [7]: 0.00169 s⁻¹; t1/2 [7]: 7 min; 100 nM hIL-36R-MMH Bound (RU) [8]: 20 RU; koff [8]: 0.00121 s⁻¹; t1/2 [8]: 10 min
2 | B2 | 10 | 5.79 | 0.000323 | 55800 | 36 | 60 | 4.45 | 0.000201 | 45200 | 57 | 12 | 6.43 | 0.00045 | 69900 | 26 | 78 | 9.77 | 0.000514 | 52600 | 22 | 100 nM Human IL-36R-MMH Bound (RU) [5]: 43 RU; koff [5]: 0.000679 s⁻¹; t1/2 [5]: 17 min; 100 nM Human IL-36R-MMH Bound (RU) [6]: 65 RU; koff [6]: 0.000553 s⁻¹; t1/2 [6]: 21 min; 100 nM hIL-36R-MMH Bound (RU) [7]: 84 RU; koff [7]: 0.00201 s⁻¹; t1/2 [7]: 6 min; 100 nM hIL-36R-MMH Bound (RU) [8]: 91 RU; koff [8]: 0.00108 s⁻¹; t1/2 [8]: 11 min
3 | B3 | 145 | 1.4 | 0.000797 | 570000 | 14 | 161 | 2.95 | 0.00136 | 462000 | 8 | 195 | 2 | 0.00127 | 635000 | 9 | 212 | 3.63 | 0.00182 | 501000 | 6 | 100 nM Human IL-36R-MMH Bound (RU) [5]: 28 RU; koff [5]: 0.000918 s⁻¹; t1/2 [5]: 13 min; 100 nM Human IL-36R-MMH Bound (RU) [6]: 32 RU; koff [6]: 0.000865 s⁻¹; t1/2 [6]: 13 min; 100 nM hIL-36R-MMH Bound (RU) [7]: 36 RU; koff [7]: 0.00123 s⁻¹; t1/2 [7]: 9 min; 100 nM hIL-36R-MMH Bound (RU) [8]: 40 RU; koff [8]: 0.0011 s⁻¹; t1/2 [8]: 10 min
